Test results: the supplement of paper PMC7125110
Fewer inactive variants are shown than the library holds.

B1: glmS ribozyme (parent)
chain: AUAAAAGCGCCAGAACUACAGAAAUGUAGUUGACGAGGAGGAGGUUUAUCGAAUUUUCGGCGGAUGCCUCCAAA

Experiments:
Conditions in all cases: with glucosamine-6-phosphate
glucosamine-6-phosphate [1] = variants of: B1; assay: self-cleavage kobs at 40 uM GlcN6P; higher = faster cleavage; RNA array
Summary of the method: (§1)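 Barcoded ribozyme variants were transcribed in situ on sequenced MiSeq chips by E. coli RNA polymerase. At 37 °C, a hybridised Cy3 probe tracked them while glucosamine-6-phosphate (40 μM to 10 mM) in HEPES/KCl/Mg(OAc)2 buffer flowed in and tiles were imaged over ~14 h. Per-tile medians of signals normalised to baseline and to non-cleaving reference variants were fit to one- or two-exponential decays, giving kobs. kcat and KM came from weighted Michaelis–Menten fits across concentrations.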

glucosamine-6-phosphate [2] = variants of: B1; assay: self-cleavage kobs at 160 uM GlcN6P; higher = faster cleavage; RNA array
Summary of the method: as §1

glucosamine-6-phosphate [3] = variants of: B1; assay: self-cleavage kobs at 640 uM GlcN6P; higher = faster cleavage; RNA array
Summary of the method: as §1

glucosamine-6-phosphate [4] = variants of: B1; assay: self-cleavage kobs at 2500 uM GlcN6P; higher = faster cleavage; RNA array
Summary of the method: as §1

glucosamine-6-phosphate [5] = variants of: B1; assay: self-cleavage kobs at 10000 uM GlcN6P; higher = faster cleavage; RNA array
Summary of the method: as §1

AUAAAAACGCCAGAACUACAGAAAUGUAGUUGACCAGGAGGAGGUUUAUCGAAUUUUCAGCGGAUGGCUCCAAA [G7A G35C G59A C67G]
< 1e-05 s⁻¹: self-cleavage kobs at 40 uM GlcN6P (glucosamine-6-phosphate [1]) | self-cleavage kobs at 160 uM GlcN6P (glucosamine-6-phosphate [2]) | self-cleavage kobs at 640 uM GlcN6P (glucosamine-6-phosphate [3]) | self-cleavage kobs at 2500 uM GlcN6P (glucosamine-6-phosphate [4])

AUAAAAACGCCAGAACUACAGAAAUGUAGUUGACGAGGAGGAGGUUUAUCGAAUUAUCGGCGGAUGCCUCCAAA [G7A U56A]
< 1e-05 s⁻¹: self-cleavage kobs at 40 uM GlcN6P (glucosamine-6-phosphate [1]) | self-cleavage kobs at 160 uM GlcN6P (glucosamine-6-phosphate [2]) | self-cleavage kobs at 640 uM GlcN6P (glucosamine-6-phosphate [3])

AUAAAACCGCUAGAACUACAGAAAUGUAAUUGACGAGGAAGUGGUUUAUCGAAUUUUCGGCUGAUGCCUCCAAA [G7C C11U G29A G40A A42U G62U]
< 1e-05 s⁻¹: self-cleavage kobs at 40 uM GlcN6P (glucosamine-6-phosphate [1])

AUAAAACCGCCAGAACUACAGAAAUGUAGUUGACGAGGAGGAGGUUUUUCGAAUUUUCGGCGGAUGCCUGCAAA [G7C A48U C70G]
< 1e-05 s⁻¹: self-cleavage kobs at 40 uM GlcN6P (glucosamine-6-phosphate [1]) | self-cleavage kobs at 10000 uM GlcN6P (glucosamine-6-phosphate [5])

AUAAAAACGCCAGAACUACAGAAAUGUAGUUCACGAGGAGGAGGUUUAUCGAAUUUUCGGCGGAUGCCUCCAAA [G7A G32C]
< 1e-05 s⁻¹: self-cleavage kobs at 40 uM GlcN6P (glucosamine-6-phosphate [1]) | self-cleavage kobs at 160 uM GlcN6P (glucosamine-6-phosphate [2]) | self-cleavage kobs at 640 uM GlcN6P (glucosamine-6-phosphate [3]) | self-cleavage kobs at 2500 uM GlcN6P (glucosamine-6-phosphate [4]) | self-cleavage kobs at 10000 uM GlcN6P (glucosamine-6-phosphate [5])

AUAAAAACGCCAGAACUACAGAAAUGUAGUUGACGAGGAGGAGGUUUAUCGAAUUUUCGGCGGAUUCCUCCAAA [G7A G66U]
< 1e-05 s⁻¹: self-cleavage kobs at 40 uM GlcN6P (glucosamine-6-phosphate [1]) | self-cleavage kobs at 160 uM GlcN6P (glucosamine-6-phosphate [2]) | self-cleavage kobs at 2500 uM GlcN6P (glucosamine-6-phosphate [4]) | self-cleavage kobs at 10000 uM GlcN6P (glucosamine-6-phosphate [5])

AUAAAAACGCCAGAACUACAGAAAUGUAGUUGACGAGGAGAAGGUUUAUCGAAUUUUCGGCGGAUGCCUCCAAA [G7A G41A]
< 1e-05 s⁻¹: self-cleavage kobs at 40 uM GlcN6P (glucosamine-6-phosphate [1]) | self-cleavage kobs at 160 uM GlcN6P (glucosamine-6-phosphate [2]) | self-cleavage kobs at 640 uM GlcN6P (glucosamine-6-phosphate [3]) | self-cleavage kobs at 2500 uM GlcN6P (glucosamine-6-phosphate [4]) | self-cleavage kobs at 10000 uM GlcN6P (glucosamine-6-phosphate [5])

AUAAAAACGCCAGAACUACAGAAAUGUAGUUGACGAGGAGGAGGUUUAUCUAAUUUUCGGCGGAUGCCUCCAAA [G7A G51U]
< 1e-05 s⁻¹: self-cleavage kobs at 40 uM GlcN6P (glucosamine-6-phosphate [1]) | self-cleavage kobs at 160 uM GlcN6P (glucosamine-6-phosphate [2]) | self-cleavage kobs at 640 uM GlcN6P (glucosamine-6-phosphate [3]) | self-cleavage kobs at 2500 uM GlcN6P (glucosamine-6-phosphate [4])

AUAAAACCGCCAGAACUACAGAAAUGUAGUUGACGAGGAGGAGGUUUAUCGAAUUUUCGGCGGAUGCCUACAAA [G7C C70A]
< 1e-05 s⁻¹: self-cleavage kobs at 40 uM GlcN6P (glucosamine-6-phosphate [1]) | self-cleavage kobs at 160 uM GlcN6P (glucosamine-6-phosphate [2]) | self-cleavage kobs at 640 uM GlcN6P (glucosamine-6-phosphate [3]) | self-cleavage kobs at 2500 uM GlcN6P (glucosamine-6-phosphate [4]) | self-cleavage kobs at 10000 uM GlcN6P (glucosamine-6-phosphate [5])

AUAAAAACGCCAGAACUACAGAAAUGUAGUUAACGAGGAGGAGGAUUAUCGGAUUUUCGGCGGAGGCCUCCAAA [G7A G32A U45A A52G U65G]
< 1e-05 s⁻¹: self-cleavage kobs at 40 uM GlcN6P (glucosamine-6-phosphate [1])

AUAAAAACGCCAGAACUACAGAAAUGUAGUUGACGAGGAGAAGGCUUAACGAAUUUUCGGCGGAUGCCUCCAAA [G7A G41A U45C U49A]
< 1e-05 s⁻¹: self-cleavage kobs at 40 uM GlcN6P (glucosamine-6-phosphate [1])

AUAAAACCGCCAGAACUACAGAAAUGUAGUUGACGAGGAGGAGGUUUAUCGUAUUUUCGGCGGAUGCCUCCAAA [G7C A52U]
< 1e-05 s⁻¹: self-cleavage kobs at 40 uM GlcN6P (glucosamine-6-phosphate [1]) | self-cleavage kobs at 160 uM GlcN6P (glucosamine-6-phosphate [2]) | self-cleavage kobs at 640 uM GlcN6P (glucosamine-6-phosphate [3]) | self-cleavage kobs at 2500 uM GlcN6P (glucosamine-6-phosphate [4]) | self-cleavage kobs at 10000 uM GlcN6P (glucosamine-6-phosphate [5])

AUAAAACCGCCAGAACUACAGAAAUGUAGUUGACGAGGAGGAGGUUUUUCGAAUUUUCGGCGGAUGCCUCCAAA [G7C A48U]
< 1e-05 s⁻¹: self-cleavage kobs at 40 uM GlcN6P (glucosamine-6-phosphate [1]) | self-cleavage kobs at 160 uM GlcN6P (glucosamine-6-phosphate [2]) | self-cleavage kobs at 2500 uM GlcN6P (glucosamine-6-phosphate [4]) | self-cleavage kobs at 10000 uM GlcN6P (glucosamine-6-phosphate [5])

AUAAAACCGCCAGAGCUACAGAAAUGUAGUUGACGAGGAGGAGGUUUAUCGAAUUUUCGGCGGAUGCCUCCAAA [G7C A15G]
< 1e-05 s⁻¹: self-cleavage kobs at 40 uM GlcN6P (glucosamine-6-phosphate [1]) | self-cleavage kobs at 10000 uM GlcN6P (glucosamine-6-phosphate [5])

AUAAAACCGCCAGAACUACAGAAAUGUAGUUGGCGAGGAGGAGGUUUAUCGAUUUUUCGGCGGGUGCCUCCAAA [G7C A33G A53U A64G]
< 1e-05 s⁻¹: self-cleavage kobs at 40 uM GlcN6P (glucosamine-6-phosphate [1]) | self-cleavage kobs at 640 uM GlcN6P (glucosamine-6-phosphate [3])

AUAAAACCGCCAGAGCUACAGAAAUGUAGUUGACGUGGAGGAGGUUUAUCGAAUUUUCGGCGGAUGCCUCCAAA [G7C A15G A36U]
< 1e-05 s⁻¹: self-cleavage kobs at 40 uM GlcN6P (glucosamine-6-phosphate [1]) | self-cleavage kobs at 640 uM GlcN6P (glucosamine-6-phosphate [3]) | self-cleavage kobs at 10000 uM GlcN6P (glucosamine-6-phosphate [5])

AUAAAACCGCCAGAACUACAGAAAUGUAGUUGACGAGGAGGAGGUUUAUCGAAUUUUCGGCGGAUGCCUCCAAA [G7C]
< 1e-05 s⁻¹: self-cleavage kobs at 40 uM GlcN6P (glucosamine-6-phosphate [1]) | self-cleavage kobs at 160 uM GlcN6P (glucosamine-6-phosphate [2]) | self-cleavage kobs at 640 uM GlcN6P (glucosamine-6-phosphate [3]) | self-cleavage kobs at 2500 uM GlcN6P (glucosamine-6-phosphate [4]) | self-cleavage kobs at 10000 uM GlcN6P (glucosamine-6-phosphate [5])

AUAAAAACGCCAGAACUACAGAAAUGUAGUUGACGACGAGGUGGUUUAUCGAAUUUUCGGCGGAUGCCUCCAAA [G7A G37C A42U]
< 1e-05 s⁻¹: self-cleavage kobs at 40 uM GlcN6P (glucosamine-6-phosphate [1]) | self-cleavage kobs at 640 uM GlcN6P (glucosamine-6-phosphate [3]) | self-cleavage kobs at 2500 uM GlcN6P (glucosamine-6-phosphate [4]) | self-cleavage kobs at 10000 uM GlcN6P (glucosamine-6-phosphate [5])

AUAAAAACGCCAGAACUACAGAAAUGUAGUUGACGAGGAGGAGGUUUAUCGAAUCUUCGGCGGAUGCCUCCAAA [G7A U55C]
< 1e-05 s⁻¹: self-cleavage kobs at 40 uM GlcN6P (glucosamine-6-phosphate [1]) | self-cleavage kobs at 160 uM GlcN6P (glucosamine-6-phosphate [2]) | self-cleavage kobs at 640 uM GlcN6P (glucosamine-6-phosphate [3])

AUAAAACCGCUAGAACUACAGAAAUGUAGUUGACGAGGAGGAGGUUUAUCGAAUUUUCGGAGGAUGCCUGCAAA [G7C C11U C61A C70G]
< 1e-05 s⁻¹: self-cleavage kobs at 40 uM GlcN6P (glucosamine-6-phosphate [1]) | self-cleavage kobs at 2500 uM GlcN6P (glucosamine-6-phosphate [4])

AUAAAACCGCCAGAACUACAGAAAUGUACUUGACUAGGAGGAGGUUUAUCGAAUUUUCGGCGGAUGCCUCCAAA [G7C G29C G35U]
< 1e-05 s⁻¹: self-cleavage kobs at 40 uM GlcN6P (glucosamine-6-phosphate [1]) | self-cleavage kobs at 640 uM GlcN6P (glucosamine-6-phosphate [3]) | self-cleavage kobs at 10000 uM GlcN6P (glucosamine-6-phosphate [5])

AUAAAACCGCCAGAACUACAGAAAUGUAGUUGACGAGGAGGAGGUUUAUUGAAUUUUCGGCGGAUGCCUCCAAA [G7C C50U]
< 1e-05 s⁻¹: self-cleavage kobs at 40 uM GlcN6P (glucosamine-6-phosphate [1]) | self-cleavage kobs at 160 uM GlcN6P (glucosamine-6-phosphate [2]) | self-cleavage kobs at 640 uM GlcN6P (glucosamine-6-phosphate [3]) | self-cleavage kobs at 2500 uM GlcN6P (glucosamine-6-phosphate [4])

AUAAAAACGCCAGAACUACAGAAAUGUAGUUGACGAGGAGGAGGUGUAUCGAAUUUUCGGCGGAUGCCUCCAAA [G7A U46G]
< 1e-05 s⁻¹: self-cleavage kobs at 40 uM GlcN6P (glucosamine-6-phosphate [1]) | self-cleavage kobs at 160 uM GlcN6P (glucosamine-6-phosphate [2]) | self-cleavage kobs at 640 uM GlcN6P (glucosamine-6-phosphate [3])

AUAAAAACGCCAGAACUACAGAAAUGUAGGUGACGAGGAGCAGGUUUAUCGAAUUUUGGGCGGAUACCUCCAAA [G7A U30G G41C C58G G66A]
< 1e-05 s⁻¹: self-cleavage kobs at 40 uM GlcN6P (glucosamine-6-phosphate [1])
